Blank lines part the entries; values can stand above or below the binder they belong to.
Tests used:
[1] = target: T1, HLA-DR3 (DRB1*0301) (human); assay: competition binding assay, purified HLA, 125I-labelled probe peptide, gel filtration; conditions: remark: other sources report otherwise
T1 chain 1: not shown
T1 chain 2: not shown

[2] = target: T1, HLA-DR3 (DRB1*0301) (human); assay: competition with 125I-labelled probe peptide on purified HLA-DR, gel filtration; IC50 of standard peptide / IC50 of test peptide; conditions: remark: other sources report otherwise
[3] = target: T2, HLA-DR6w19 (DRB1*1302) (human); assay: competition binding assay, purified HLA, 125I-labelled probe peptide, gel filtration; conditions: remark: other sources report otherwise
T2 chain 1: not shown
T2 chain 2: not shown

[4] = target: T3, HLA-DR5w11 (DRB1*1101) (human); assay: as above; conditions: remark: other sources report otherwise
T3 chain 1: not shown
T3 chain 2: not shown

[5] = target: T4, HLA-DR2w2β1 (DRB1*1501) (human); assay: as above; conditions: remark: other sources report otherwise
T4 chain 1: not shown
T4 chain 2: not shown

[6] = target: T5, HLA-DRB1*1302 (human); assay: inhibition of 125I probe peptide binding to purified HLA-DR, gel filtration; conditions: remark: other sources report otherwise
T5 chain 1: not shown
T5 chain 2: not shown

[7] = target: HLA-A*0101 (human); assay: competition with 125I-labelled probe peptide for purified HLA-A*0101, gel filtration; conditions: remark: other sources report otherwise; scale: ratio
[8] = target: HLA-A*0101 (purified HLA class I molecule) (human); assay: competition with 125I-labelled standard peptide on purified HLA-A*0101, gel filtration; conditions: remark: other sources report otherwise
[9] = target: HLA-A*1101 (human); assay: competitive inhibition of 125I-labeled probe peptide binding to purified HLA-A*1101, gel filtration; conditions: remark: other sources report otherwise; scale: ratio
[10] = target: HLA-A*0101 (human); assay: competition with 125I-labelled probe peptide for purified HLA-A*0101, gel filtration; relative to standard peptide; conditions: remark: other sources report otherwise
[11] = target: HLA-A*3101 (human); assay: competition with 125I-labelled standard peptide for purified HLA; gel filtration; conditions: remark: other sources report otherwise
[12] = target: T6, HLA-DR8w2 (DRB1*0802) (human); assay: competition binding assay, purified HLA, 125I-labelled probe peptide, gel filtration; conditions: remark: other sources report otherwise
T6 chain 1: not shown
T6 chain 2: not shown

[13] = target: T7, HLA-DR2w2β2 (DRB5*0101) (human); assay: as above; conditions: remark: other sources report otherwise
T7 chain 1: not shown
T7 chain 2: not shown

[14] = target: T8, HLA-DR1 (DRB1*0101) (human); assay: as above; conditions: remark: other sources report otherwise
T8 chain 1: not shown
T8 chain 2: not shown

[15] = target: HLA-B*0702 (human); assay: competition with 125I-labelled probe peptide for purified HLA, gel filtration; conditions: scale: ratio
[16] = target: HLA-A*0201 (human); assay: competitive inhibition of 125I-labeled probe peptide binding to purified HLA-A*0201; conditions: remark: other sources report otherwise
[17] = target: HLA-A*6802 (human); assay: competition with 125I-labelled probe peptide for purified HLA, gel filtration; conditions: remark: other sources report otherwise
[18] = target: HLA-A*6802 (human); assay: competition for purified HLA vs 125I-labelled probe peptide, gel filtration; conditions: remark: other sources report otherwise
[19] = target: HLA-A*0201 (human); assay: competition with 125I probe peptide for purified HLA; conditions: remark: other sources report otherwise
[20] = target: HLA-A*0201 (human); assay: inhibition of 125I-labelled probe peptide binding to purified HLA, gel filtration; conditions: remark: other sources report otherwise; scale: ratio
[21] = target: T9, HLA-DR3 (human); assay: competitive inhibition of 125I-labeled probe peptide binding to purified HLA-DR3; conditions: remark: other sources report otherwise
T9 chain 1: not shown
T9 chain 2: not shown

[22] = target: HLA-A*6802 (human); assay: competition with 125I probe peptide for purified HLA; conditions: remark: other sources report otherwise
[23] = target: HLA-A*0202 (human); assay: as above; conditions: remark: other sources report otherwise
[24] = target: T10, HLA-DRB1*0701 (human); assay: inhibition of 125I probe peptide binding to purified HLA-DR, gel filtration; conditions: remark: other sources report otherwise
T10 chain 1: not shown
T10 chain 2: not shown

[25] = target: T11, HLA-DRB1*0101 (human); assay: as above; conditions: remark: other sources report otherwise
T11 chain 1: not shown
T11 chain 2: not shown

[26] = target: T10, HLA-DRB1*0701 (human); assay: competition with 125I probe peptide, purified HLA; conditions: remark: other sources report otherwise
[27] = target: T11, HLA-DRB1*0101 (human); assay: competition with 125I probe peptide, purified HLA; conditions: remark: other sources report otherwise
[28] = target: HLA-A*1101 (human); assay: inhibition of 125I-labelled probe peptide binding to purified HLA-A*1101, gel filtration; conditions: remark: other sources report otherwise
[29] = target: HLA-A*0301 (human); assay: inhibition of 125I-labelled probe peptide binding to purified HLA-A*0301, gel filtration; ratio to standard peptide 941.12 ([..], 11 nM); conditions: remark: other sources report otherwise
[30] = target: HLA-A*0101 (human); assay: competition with 125I-labelled probe peptide for purified HLA-A*0101, gel filtration; ratio = IC50 of standard peptide 944.02 / IC50 of test peptide; conditions: remark: other sources report otherwise
[31] = target: HLA-A*1101 (human); assay: competition with 125I-labelled probe peptide for purified HLA-A*1101, gel filtration; standard peptide 940.06 [..] (6.0 nM); conditions: remark: other sources report otherwise; scale: ratio
[32] = target: HLA-A*0301 (human); assay: inhibition of 125I-labelled probe peptide binding to purified HLA-A*0301, gel filtration; ratio to standard peptide 941.12 [..] (11 nM); conditions: remark: other sources report otherwise
[33] = target: T12, HLA-DRB1*1101 (human); assay: inhibition of 125I probe peptide binding to purified HLA-DR, gel filtration; conditions: remark: other sources report otherwise
T12 chain 1: not shown
T12 chain 2: not shown

[34] = target: T11, HLA-DRB1*0101 (human); assay: competition with 125I-labelled standard peptide, purified HLA-DR, gel filtration; conditions: remark: other sources report otherwise
[35] = target: T12, HLA-DRB1*1101 (human); assay: as above; conditions: remark: other sources report otherwise
[36] = target: T13, HLA-DR4w4 (DRB1*0401) (human); assay: competition with 125I-labelled probe peptide on purified HLA-DR, gel filtration; IC50 of standard peptide / IC50 of test peptide; conditions: remark: other sources report otherwise
T13 chain 1: not shown
T13 chain 2: not shown

[37] = target: T14, HLA-DR7 (DRB1*0701) (human); assay: as above; conditions: remark: other sources report otherwise
T14 chain 1: not shown
T14 chain 2: not shown

[38] = target: HLA-A*0201 (human); assay: competition for purified HLA vs 125I-labelled probe peptide, gel filtration; conditions: remark: other sources report otherwise
[39] = target: HLA-B*5401 (human); assay: competition vs 125I-labeled standard peptide, purified HLA; conditions: remark: other sources report otherwise
[40] = target: HLA-B*5301 (human); assay: as above; conditions: remark: other sources report otherwise

relative binding ratio (ratio to standard peptide) [1]: 0.071
relative binding ratio [2]: 0.071
Binder: FRELVSEFSRMARDP [HER2/neu peptide … (position 969)]

relative binding ratio (ratio to standard peptide) [3]: -0.0001
relative binding ratio (ratio to standard peptide) [4]: -0.0008
relative binding ratio (ratio to standard peptide) [5]: -0.0006
Binder: CWMIDSECRPRFREL [HER2/neu peptide … (position 958)]

IC50 [6]: 2500 nM
Binder: ETELRKVKVLGSGAF [Her2/neu.717]

relative binding ratio [7]: 0.3
relative binding ratio (IC50 of standard peptide / IC50 of test peptide) [8]: 0.3
relative binding ratio [9]: 0.0001
relative binding ratio (IC50 of standard peptide / IC50 of test peptide) (relative binding ratio) [10]: 0.3
Binder: CMQIAKGMSY [HER2/neu peptide, position 826, 10 amino acids]

IC50 [11]: 9000 nM
Binder: LVARNVLVK (modifications not checked) [Her2/neu.846.V2]

relative binding ratio (ratio to standard peptide) [12]: -0.0009
relative binding ratio (ratio to standard peptide) [4]: -0.0008
relative binding ratio (ratio to standard peptide) [1]: 0.9
relative binding ratio (ratio to standard peptide) [13]: -0.0007
relative binding ratio (ratio to standard peptide) [14]: -0.0001
Binder: WDQLFRNPHQALLHT [HER2/neu peptide … (position 482)]

relative binding ratio ([15]; remark: other sources report otherwise): 0.0001
Binder: GPKHSDCLA [HER2/neu peptide, position 246, 9 amino acids]

IC50 [16]: < 500 nM
IC50 [17]: 2000 nM
IC50 [18]: 2000 nM
Binder: VVLGVVFGI [Her2/neu.665]

IC50 [19]: 200 nM
Binder: VMAGVGSPYV [Her2/neu.773 …]

relative binding ratio [20]: 0.0002
Binder: VLVKSPNHV [HER2/neu peptide, position 851, 9 amino acids]

IC50 [21]: < 1000 nM
Binder: WDQLFRNPHQALLHT [Her2/neu.482]

IC50 [22]: 2100 nM
IC50 [23]: 226 nM
Binder: QLFEDNYAL [Her2/neu.106 (9-mer) …]

IC50 [11]: 500 nM
Binder: LLDHVRENR [Her2/neu.806]

IC50 [6]: 73 nM
Binder: ASPLTSIISAVVGIL [Her2/neu.648]

IC50 [24]: 86 nM
IC50 [25]: 28 nM
IC50 [26]: 86 nM
IC50 [27]: 28 nM
Binder: LSVFQNLQVIRGRIL [Her2/neu.422]

relative binding ratio [7]: 5.5
relative binding ratio (IC50 of standard peptide / IC50 of test peptide) [8]: 5.5
relative binding ratio (IC50 of standard peptide / IC50 of test peptide) (relative binding ratio) [28]: 0.001
relative binding ratio (IC50 of standard peptide / IC50 of test peptide) [29]: 0.0005
relative binding ratio (IC50 of standard peptide / IC50 of test peptide) (relative binding ratio) [10]: 5.5
Binder: FSPAFDNLYY [HER2/neu peptide, position 1213, 10 amino acids]

relative binding ratio [7]: 7.6
relative binding ratio [30]: 7.6
relative binding ratio [31]: 0.0001
relative binding ratio (IC50 of standard peptide / IC50 of test peptide) [32]: 0.0003
relative binding ratio (IC50 of standard peptide / IC50 of test peptide) (relative binding ratio) [10]: 7.6
Binder: LLDIDETEY [HER2/neu peptide, position 869, 9 amino acids]

relative binding ratio [15]: 0.0032
Binder: LPQPPICTIDV (modifications not checked) [HER2/neu peptide, position 941, 11 amino acids]

IC50 [25]: 58 nM
IC50 [33]: 3700 nM
IC50 [34]: 58 nM
IC50 [35]: 3700 nM
IC50 [27]: 58 nM
Binder: VWELMTFGAKPYDGI [Her2/neu.912]

relative binding ratio [36]: 0.033
relative binding ratio [37]: 0.017
Binder: GVTVWELMTFGAKPY [HER2/neu peptide … (position 909)]

IC50 [24]: 2500 nM
IC50 [25]: 22 nM
IC50 [26]: 2500 nM
IC50 [27]: 22 nM
Binder: TVQLVTQLMPYGCLL [Her2/neu.793]

relative binding ratio [20]: 0.0002
Binder: TLSPGKNGV [HER2/neu peptide, position 1172, 9 amino acids]

IC50 [16]: < 500 nM
IC50 [38]: 200 nM
Binder: VMAGVGSPYV [Her2/neu.773]

IC50 [33]: 43 nM
IC50 [35]: 43 nM
Binder: VLGVVFGILIKRRQQ [Her2/neu.666]

relative binding ratio [7]: 2.7
relative binding ratio (IC50 of standard peptide / IC50 of test peptide) (relative binding ratio) [28]: 0.0005
relative binding ratio (IC50 of standard peptide / IC50 of test peptide) [29]: 0.0003
relative binding ratio [30]: 2.7
relative binding ratio (IC50 of standard peptide / IC50 of test peptide) (relative binding ratio) [10]: 2.7
Binder: FTHQSDVWSY [HER2/neu peptide, position 899, 10 amino acids]

relative binding ratio (ratio to standard peptide) [1]: 0.0083
relative binding ratio [2]: 0.0083
Binder: CYGLGMEHLREVRAV [HER2/neu peptide … (position 342)]

IC50 [39]: 29 nM
IC50 [40]: 490 nM
Binder: KPYDGIPA [Her2/neu.921, 8-mer]

From patent US20040018971A1
